For one substance, decrease in release of IL-2 and IFN-γ by P4-CAR-T cells with 5 ng/ml TGFβ1 results are on record in patent publication US20220008464A1.

For the assay, the target named is TGFBR II (UniProt P37173). Description: cell-based or functional assay.
Chain of TGFBR II (P37173 23-567): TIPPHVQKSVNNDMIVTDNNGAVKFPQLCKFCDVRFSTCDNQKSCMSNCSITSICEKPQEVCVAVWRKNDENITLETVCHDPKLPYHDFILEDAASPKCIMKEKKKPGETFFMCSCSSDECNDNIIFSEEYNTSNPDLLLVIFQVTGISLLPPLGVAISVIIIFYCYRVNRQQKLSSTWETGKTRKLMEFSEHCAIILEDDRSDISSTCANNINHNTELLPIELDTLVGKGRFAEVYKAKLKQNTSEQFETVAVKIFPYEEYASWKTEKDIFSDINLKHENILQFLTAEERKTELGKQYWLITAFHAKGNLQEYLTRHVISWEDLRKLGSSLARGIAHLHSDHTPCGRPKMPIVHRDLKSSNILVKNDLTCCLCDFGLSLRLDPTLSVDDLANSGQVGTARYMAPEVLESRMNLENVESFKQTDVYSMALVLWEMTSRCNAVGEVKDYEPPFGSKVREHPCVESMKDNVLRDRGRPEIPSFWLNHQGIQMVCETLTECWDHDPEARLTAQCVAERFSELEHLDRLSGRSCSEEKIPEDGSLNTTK

“TGFβ1 (from UniProt P01137 279-390) (ligand)” yielded a decrease in release of IL-2 and IFN-γ by P4-CAR-T cells with 5 ng/ml TGFβ1 of 50%.
